Data set [1] in a line: Monitoring of the blood clearance profile of peptide-dye conjugates. Format: in vivo, Sprague-Dawley or Fischer 344 rats. Particulars: rat ear; monitored at 830 nm after excitation at 780 nm. An excerpt:
A laser of appropriate wavelength for excitation of the dye chromophore was directed into one end of a fiber optic bundle and the other end was positioned a few millimeters from the ear of a rat. A second fiber optic bundle was also positioned near the same ear to detect the emitted fluorescent light and the other end was directed into the optics and electronics for data collection. An interference filter (IF) in the collection optics train was used to select emitted fluorescent light of the appropriate wavelength for the dye chromophore.
Sprague-Dawley or Fischer 344 rats were used in these studies. The animals were anesthetized with urethane administered via intraperitoneal injection at a dose of 1.35 g/kg body weight. After the animals had achieved the desired plane of anesthesia, a 21 gauge butterfly with 12″ tubing was placed in the lateral tail vein of each animal and flushed with heparinized saline. The animals were placed on a heating pad and kept warm throughout the entire study. The lobe of the left ear was affixed to a glass microscope slide to reduce movement and vibration.
Incident laser light delivered from the fiber optic was centered on the affixed ear. Data acquisition was then initiated, and a background reading of fluorescence was obtained prior to administration of the test agent. For Cytates 1 or 2, the peptide-dye conjugate was administered to the animal through a bolus injection, typically 0.5 to 2.0 mL, in the lateral tail vein. This procedure was repeated with several dye-peptide conjugates in normal and tumor-bearing rats. Representative profiles as a method to monitor blood clearance of the peptide-dye conjugate in normal and tumor-bearing animals are shown in FIGS. 12 to 16. The data were analyzed using a standard sigma plot software program for a one-compartment model.

The subject of data set [2] is Rat pancreatic acinar carcinoma expressing the SST-2 receptor (CA20948). In words: In vivo fluorescence imaging of pancreatic acinar carcinoma CA20948 in rats. The source says:
(§1) A non-invasive in vivo fluorescence imaging apparatus was employed to assess the efficacy of contrast agents developed for tumor detection in animal models. A LaserMax Inc. laser diode of nominal wavelength 780 nm and nominal power of 40 mW was used. The detector was a Princeton Instruments model RTE/CCD-1317-K/2 CCD camera with a Rodenstock 10 mm F2 lens (stock #542.032.002.20) attached. An 830 nm interference […] (CVI Laser Corp., part # F10-830-4-2) was mounted in front of the CCD input lens such that only emitted fluorescent light from the contrast agent was imaged. Typically, an image of the animal was taken pre-injection of contrast agent. This image was subsequently subtracted (pixel by pixel) from the post injection images. However, the background subtraction was […] done once the animal had been removed from the sample area and returned at a later time for images taken several hours post injection.
The imaging apparatus and the procedure used are described in Example 12. Rat pancreatic acinar carcinoma expressing the SST-2 receptor (CA20948) was induced by solid implant technique in the left flank area, and palpable masses were detected nine days post implant. The images obtained at 2 and 30 minutes post injection are shown in FIGS. 7E-F. FIGS. 7E-F are images of a rat with an induced pancreatic acinar carcinoma (CA20948) expressing the SST-2 receptor imaged at two minutes (FIG. 7E) and 30 minutes (FIG. 7F) post injection.
The imaging apparatus and the procedure used are described in Example 12, except that each animal received 500 μl of a 1.0 mg/mL solution of Cytate 1 solution of 25% dimethylsulfoxide in water.
Rat pancreatic acinar carcinoma expressing the SST-2 receptor (CA20948) were induced by solid implant technique in the left flank area, and palpable masses were detected 24 days post implant. Images were obtained at various times post injection.
Cytate 1 was evaluated in the CA20948 Lewis rat model. […] At 27 hours post injection, the animal was again imaged (FIG. 9B).

Data set [3] deals with Pancreatic Ductal Adenocarcinoma (DSL 6A). In words: In vivo fluorescence imaging of DSL 6A tumors in rats. More on the design: species or system male Lewis rats.
Text: as §1
DSL 6A tumors were induced in male Lewis rats in the left flank area by the introduction of material from a solid (donor) implant, and the tumors were palpable in approximately 14 days. The animals were anesthetized with xylazine:ketamine:acepromazine, 1.5:1.5:0.5 at 0.8 mL/kg via intramuscular injection. The area of the tumor (left flank) was shaved to expose the tumor and the surrounding surface area. […]

In data set [4] the test system is Prostatic Carcinoma (R3327-H). In words: In vivo fluorescence imaging of prostatic carcinoma R3327-H in rats. More on the design: species or system male Copenhagen rats.
Text: as §1
The imaging apparatus and the procedure used are described as in Example 12. Prostate tumors (Dunning R3327-H) were induced in young male Copenhagen rats in the left flank area from a solid implant. These tumors grow very slowly and palpable masses were present 4-5 months post implant. FIGS. 7C-D are images of a rat with an induced prostatic carcinoma tumor (R3327-H) imaged at two minutes (FIG. 7C) and 30 minutes (FIG. 7D) post injection.

A short description of data set [5]: Imaging of individual organs removed from CA20948 tumor-bearing rat. Type of data set: in vivo. The conditions noted are these: about 24 hours post administration. As to the method: Individual organs were removed at about 24 hours post Cytate 1 administration and imaged.

Consider three compounds from patent US7011817B2, “Hydrophilic cyanine dyes” (Mallinckrodt Inc., priority 2000, dated 2006).

Consider `C[C@@H](O)[C@H](NC(=O)[C@@H]1CSSC[C@H](NC(=O)[C@@H](Cc2ccccc2)NC(=O)CCN2C(=CC=CC=CC=CC3=[N+](CCC(=O)N[C@H](Cc4ccccc4)C(=O)N[C@H]4CSSC[C@@H](C(=O)N[C@H](C(=O)O)[C@@H](C)O)NC(=O)[C@H]([C@@H](C)O)NC(=O)[C@H](CCCCN)NC(=O)[C@@H](Cc5c[nH]c6ccccc56)NC(=O)[C@H](Cc5ccc(O)cc5)NC4=O)c4ccc5ccccc5c4C3(C)C)C(C)(C)c3c2ccc2ccccc32)C(=O)N[C@@H](Cc2ccc(O)cc2)C(=O)N[C@H](Cc2c[nH]c3ccccc23)C(=O)N[C@@H](CCCCN)C(=O)N[C@@H]([C@@H](C)O)C(=O)N1)C(=O)O` [Cytate 2, bisOctreotate-Bisethylcarboxymethylindocyanine dye], for which, in data set [1], the “blood fluorescence signal after bolus injection (rise)” value is “rapidly increased to a peak value” and the “blood fluorescence signal after the peak (clearance)” value is on record as “decayed as a function of time”.

Turning to `CC1(C)C(/C=C/C=C/C=C/C=C2\N(CCCCS(=O)(=O)O)c3ccc4ccccc4c3C2(C)C)=[N+](CCCCS(=O)(=O)[O-])c2ccc3ccccc3c21` [ICG, indocyanine green], the “dye intensity in the tumor” value in data set [2] (30 minutes post-ICG injection, CA20948 tumor) is “considerably diminished and almost absent”; in data set [3] (30 minutes post-ICG injection, DSL 6A tumor, 500 μL of 0.42 mg/mL in water, tail vein), “considerably diminished”; in data set [4] (30 minutes post-ICG injection, R3327-H tumor), “considerably diminished”. The “dye fluorescence in the tumor at 45 minutes” value in data set [2] (45 minutes post injection, CA20948 tumor) is “mostly cleared”. For the same compound, the “perfusion of the agent into the tumor” value in data set [2] (CA20948 (pancreatic) tumor line) is reported as “only a slight but transient perfusion that was absent after only 30 minutes post injection”; in data set [3] (DSL 6/A (pancreatic) tumor line), “slow perfusion of the agent over time into the tumor”; in data set [4] (Dunning R3327H (prostate) tumor line) it was “slow perfusion of the agent over time into the tumor”.

As for `C[C@@H](O)[C@H](NC(=O)[C@@H]1CSSC[C@H](NC(=O)[C@@H](Cc2ccccc2)NC(=O)CC[N+]2=C(/C=C/C=C/C=C/C=C3/N(CCC(=O)O)c4ccc5ccccc5c4C3(C)C)C(C)(C)c3c2ccc2ccccc32)C(=O)N[C@@H](Cc2ccc(O)cc2)C(=O)N[C@H](Cc2c[nH]c3ccccc23)C(=O)N[C@@H](CCCCN)C(=O)N[C@@H]([C@@H](C)O)C(=O)N1)C(=O)O` [Cytate 1, monoOctreotate-Bisethylcarboxymethylindocyanine dye], in data set [1], the “blood fluorescence signal after bolus injection (rise)” value is reported as “rapidly increased to a peak value” and the “blood fluorescence signal after the peak (clearance)” value is on record as “decayed as a function of time”. In addition, in data set [5], the “organ uptake: adrenals” value was “high uptake”, the “organ uptake: heart” value is listed as “significantly lower uptake”, the “organ uptake: liver” value was “significantly lower uptake” and the “organ uptake: muscle” value is given as “significantly lower uptake”. Also, in data set [5], the “organ uptake: pancreas” value is listed as “high uptake”, the “organ uptake: spleen” value is recorded as “significantly lower uptake” and the “organ uptake: tumor tissue” value was “high uptake”.
